Measured values as given in US20190169246A1 (UNIVERSITY OF SOUTH FLORIDA, published 2019).

Target: APC
Sequence (Q14114 33-826): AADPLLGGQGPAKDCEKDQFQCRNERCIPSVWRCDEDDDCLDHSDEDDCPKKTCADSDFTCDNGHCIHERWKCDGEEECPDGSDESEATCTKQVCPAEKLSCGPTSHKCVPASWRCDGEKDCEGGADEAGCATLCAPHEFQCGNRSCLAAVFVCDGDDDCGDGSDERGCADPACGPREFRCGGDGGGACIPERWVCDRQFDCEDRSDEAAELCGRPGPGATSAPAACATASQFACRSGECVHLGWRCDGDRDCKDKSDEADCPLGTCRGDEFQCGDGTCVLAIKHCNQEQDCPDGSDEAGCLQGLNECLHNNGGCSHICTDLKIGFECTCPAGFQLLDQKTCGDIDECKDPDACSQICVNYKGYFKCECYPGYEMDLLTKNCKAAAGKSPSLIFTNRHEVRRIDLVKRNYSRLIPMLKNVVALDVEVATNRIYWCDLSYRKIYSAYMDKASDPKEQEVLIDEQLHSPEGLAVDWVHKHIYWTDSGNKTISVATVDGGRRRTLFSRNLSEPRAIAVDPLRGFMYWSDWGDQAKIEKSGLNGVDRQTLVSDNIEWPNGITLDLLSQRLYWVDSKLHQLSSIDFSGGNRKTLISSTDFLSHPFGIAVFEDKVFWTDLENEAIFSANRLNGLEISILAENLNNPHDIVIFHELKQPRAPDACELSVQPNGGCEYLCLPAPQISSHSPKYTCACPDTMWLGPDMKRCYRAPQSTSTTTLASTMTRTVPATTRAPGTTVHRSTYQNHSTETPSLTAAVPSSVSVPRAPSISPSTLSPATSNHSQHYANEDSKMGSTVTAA

Kd: 30 nM
B1: ApoER2 (as bound by APC) (receptor)
chain: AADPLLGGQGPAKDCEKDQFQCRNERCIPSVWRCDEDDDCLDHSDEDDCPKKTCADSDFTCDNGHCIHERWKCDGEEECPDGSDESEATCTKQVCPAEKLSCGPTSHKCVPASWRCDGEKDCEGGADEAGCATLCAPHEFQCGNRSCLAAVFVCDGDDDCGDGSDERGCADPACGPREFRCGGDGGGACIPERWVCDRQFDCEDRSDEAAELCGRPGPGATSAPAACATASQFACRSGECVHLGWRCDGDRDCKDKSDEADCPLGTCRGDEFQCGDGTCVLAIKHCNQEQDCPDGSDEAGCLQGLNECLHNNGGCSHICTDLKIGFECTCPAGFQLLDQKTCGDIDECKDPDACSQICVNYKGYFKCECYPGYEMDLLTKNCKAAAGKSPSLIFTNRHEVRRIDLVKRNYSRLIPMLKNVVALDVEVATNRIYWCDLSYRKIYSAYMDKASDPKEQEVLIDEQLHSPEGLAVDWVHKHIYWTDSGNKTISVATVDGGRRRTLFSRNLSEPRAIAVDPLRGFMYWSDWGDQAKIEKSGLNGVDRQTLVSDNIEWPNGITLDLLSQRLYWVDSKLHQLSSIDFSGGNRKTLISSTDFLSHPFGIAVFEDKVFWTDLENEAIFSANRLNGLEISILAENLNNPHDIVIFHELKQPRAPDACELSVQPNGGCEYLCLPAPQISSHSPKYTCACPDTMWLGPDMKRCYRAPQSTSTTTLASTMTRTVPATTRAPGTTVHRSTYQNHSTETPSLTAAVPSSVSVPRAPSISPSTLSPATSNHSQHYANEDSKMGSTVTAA
